Measurements: patent publication US20220324954A1 (SHANGHAI NOVAMAB BIOPHARMACEUTICALS, published 2022)
Substitutions are numbered along the chain they refer to. Blank lines part the entries; values can stand above or below the binder they belong to.

Tests used:
human VEGFA [1] = molecular target: T1, human VEGFA (human, UniProt P15692-4 27-191, limits assumed, biotinylated (sites not given) in the ELISA assays); assay: cell-based or functional assay
human VEGFA [2] = molecular target: T1, human VEGFA; assay: blocking ELISA: VEGFR2 coated, biotinylated VEGFA with antibody dilutions (FIG. 1)
Protocol: (§1) (4) After washing with PBST for 5 times, 100 uL SA-HRP (1:100000 dilution) was added and incubated at 37° C. for 1 hour. (5) After washing with PBST for 5 times, TMB chromochrome solution 100 uL was added, and developed at 37° C. for 10 min, 2M H₂SO₄ (50 uL/well) was added to terminate the reaction, and the absorption value was measured at 450 nm wavelength with a microplate reader.

human VEGFA [3] = molecular target: T1, human VEGFA; assay: blocking ELISA: VEGFR2 coated, biotinylated VEGFA with antibody dilutions (FIG. 4)
Protocol: as §1

human VEGFA [4] = molecular target: T1, human VEGFA; assay: blocking ELISA: VEGFR2 coated, biotinylated VEGFA with antibody dilutions (FIG. 5)
Protocol: as §1

human VEGFB = molecular target: T2, human VEGFB (human, UniProt P49765-2 22-188, limits assumed, biotinylated (sites not given)); assay: ELISA, antibody coated, biotinylated ligand, SA-HRP
T2 construct: also called Biotin-HVEGFB
T2 sequence (looked up): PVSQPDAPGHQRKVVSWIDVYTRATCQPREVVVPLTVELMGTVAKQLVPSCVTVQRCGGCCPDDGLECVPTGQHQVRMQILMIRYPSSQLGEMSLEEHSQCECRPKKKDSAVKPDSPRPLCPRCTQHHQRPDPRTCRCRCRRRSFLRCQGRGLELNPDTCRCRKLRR
Protocol: (§2) ELISA was used to verify whether the candidate antibodies could cross-react with VEGF homologous proteins. (1) 1 ug/mL antibody to be measured was added to the ELISA plate and coated overnight at 4° C. […] (4) After washing with PBST for 5 times, 100 uL diluted SA-HRP (1:5000 diluted) was added at 37° C. and incubated for 1 hour; (5) After washing with PBST for 5 times, TMB solution (100 uL) was added and developed at 37° C. for 10 min, add 2M H₂SO₄ (50 uL/well) was added to terminate the reaction, and the absorption value at 450 nm wavelength was measured with a microplate reader.

human VEGFC = molecular target: T3, human VEGFC (human, UniProt P49767 112-227, limits assumed, biotinylated (sites not given)); assay: as above
T3 construct: also called Biotin-HVEGFC
T3 sequence (looked up): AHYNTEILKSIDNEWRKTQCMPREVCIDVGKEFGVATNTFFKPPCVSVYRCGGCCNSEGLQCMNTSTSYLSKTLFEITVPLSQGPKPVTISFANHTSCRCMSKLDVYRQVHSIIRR
Protocol: as §2

human VEGFD = molecular target: T4, human VEGFD (human, UniProt O43915 89-205, limits assumed, biotinylated (sites not given)); assay: as above
T4 construct: also called Biotin-HVEGFD
T4 sequence (looked up): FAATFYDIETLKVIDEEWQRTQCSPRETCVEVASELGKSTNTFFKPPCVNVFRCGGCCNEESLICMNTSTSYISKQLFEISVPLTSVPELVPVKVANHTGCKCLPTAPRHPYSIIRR
Protocol: as §2

human VEGFA [5] = molecular target: T1, human VEGFA; assay: blocking ELISA: VEGFR2 coated, biotinylated VEGFA with antibody dilutions (FIG. 6)
Protocol: as §1

human VEGFA [6] = molecular target: T1, human VEGFA; assay: blocking ELISA: VEGFR1 coated, biotinylated VEGFA with antibody dilutions (FIG. 10)
Protocol: (1) VEGFR1 protein was coated on an enzyme plate (1 ug/mL, 100 uL/well) and incubated at 4° C. overnight. […] (4) After washing with PBST for 5 times, 100 uL SA-HRP (1:100000 dilution) was added and incubated at 37° C. for 1 hour. (5) After washing with PBST for 5 times, TMB solution (100 uL) was added and developed at 37° C. for 10 min, 2M H₂SO₄ (50 uL/well) was added to terminate the reaction, and the absorption value at 450 nm wavelength was measured with a microplate reader.

human VEGFA [7] = molecular target: T1, human VEGFA; assay: blocking ELISA: VEGFR2 coated, biotinylated VEGFA with antibody dilutions (FIG. 5); reference huNb24
Protocol: as §1

T1 sequence (P15692 other isoform, or with tags, fused parts or gaps limits assumed): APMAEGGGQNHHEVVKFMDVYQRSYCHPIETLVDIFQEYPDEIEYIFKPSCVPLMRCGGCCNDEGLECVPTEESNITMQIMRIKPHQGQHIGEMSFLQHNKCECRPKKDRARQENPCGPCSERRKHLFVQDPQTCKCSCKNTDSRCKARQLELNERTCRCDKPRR

- inhibitory effect on HUVEC cell proliferation (CCK8, OD450), IC50 (human VEGFA [1]): 0.0296 µg/mL
- IC50 (human VEGFA [2]): 0.0149 µg/mL
- IC50 (human VEGFA [3]): 0.045 µg/mL
B1: Nb24 (Fc fusion)
chain: QVQLQESGGGSVQAGGSLRLSCTASGFTFDDPDVGWFRQAPGNECELVSTISKDGSTYYTDSVKGRFTISQDYAKNTVYLQMNSLKPEDTAVYYCAADSNPIAPIRTCLGWYNYWGQGTQVTVSS
notes: also called candidate antibody Nb24; antibody before humanization; not shown: Fc

- IC50 (human VEGFA [3]): 0.038 µg/mL
- IC50 (human VEGFA [4]): 0.044 µg/mL
B2: huNb24 (Fc fusion)
chain: B1 chain with Q1E, S11L, A14P, Q71R, K86R, P87A, Q120L
notes: also called humanized antibody huNb24; antibody after humanization; not shown: Fc from the pFUSE vector

- inhibitory effect on HUVEC cell proliferation, IC50 (human VEGFA [1]): 0.0536 µg/mL
- binding result (human VEGFB): no binding (tested: 1 ug/mL)
- binding result (human VEGFC): no binding (tested: 1 ug/mL)
- binding result (human VEGFD): no binding (tested: 1 ug/mL)
- IC50 (human VEGFA [4]): 0.013 µg/mL
- IC50 (human VEGFA [5]): 0.022 µg/mL
- IC50 (human VEGFA [6]): 0.168 µg/mL
- fold increase of blocking activity against huNb24 (human VEGFA [7]): > 3 times
B3: hu bi-Nb24(Y) (VHH)
chain: EVQLQESGGGLVQPGGSLRLSCTASGFTFDDPDVGWFRQAPGNECELVSTISKDGSTYYTDSVKGRFTISRDYAKNTVYLQMNSLRAEDTAVYYCAADSNPIAPIRTCLGWYNYWGQGTLVTVSSGGGGSGGGSEVQLQESGGGLVQPGGSLRLSCTASGFTFDDPDVGWFRQAPGNECELVSTISKDGSTYYTDSVKGRFTISRDYAKNTVYLQMNSLRAEDTAVYYCAADSNPIAPIRTCLGWYNYWGQGTLVTVSS
notes: Bivalent tandem VHH, one chain, expressed in Pichia pastoris, no Fc; also called humanized bivalent antibody expressed by the yeast; huNb24 bivalent
